# In patent publication US20200222532A1 (ARGENX, published 2020):
# B1: ARGX-110 (cusatuzumab) (antibody, V domains shown)
# VH: EVQLVESGGGLVQPGGSLRLSCAASGFTFSVYYMNWVRQAPGKGLEWVSDINNEGGTTYYADSVKGRFTISRDNSKNSLYLQMNSLRAEDTAVYYCARDAGYSNHVPIFDSWGQGTLVTVSS
# VL: QAVVTQEPSLTVSPGGTVTLTCGLKSGSVTSDNFPTWYQQTPGQAPRLLIYNTNTRHSGVPDRFSGSILGNKAALTITGAQADDEAEYFCALFISNPSVEFGGGTQLTVLG
# Molecular target: T1, CD70 (human, UniProt P32970 1-193)
# T1 sequence (looked up): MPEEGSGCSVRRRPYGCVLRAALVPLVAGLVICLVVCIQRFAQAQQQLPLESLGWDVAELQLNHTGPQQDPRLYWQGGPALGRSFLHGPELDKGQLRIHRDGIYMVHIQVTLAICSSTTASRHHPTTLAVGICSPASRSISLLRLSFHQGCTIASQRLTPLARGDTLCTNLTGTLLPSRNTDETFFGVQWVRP
# Test: cell-based or functional assay
binder,measurement,value
B1,IC50 of killing of MOLM-13 AML cells in the presence of CFSE-labelled NK cells (ratio 1:1),0.68 µg/mL
same,IC50 of killing of MV4-11 AML cells in the presence of CFSE-labelled NK cells (ratio 1:1),1.2 µg/mL
same,IC50 of killing of NB4 AML cells in the presence of CFSE-labelled NK cells (ratio 1:1),0.3 µg/mL
same,IC50 of killing of NOMO-1 AML cells in the presence of CFSE-labelled NK cells (ratio 1:1),0.14 µg/mL
